The results in this text go back to patent publication US11833164B2, “Methods of treating Fabry disease in patients having a mutation in the GLA gene” (Amicus Therapeutics, Inc., priority 2019, dated 2023).

In the assay the test system is mutant form of α-Gal A expressed in HEK-293 cells. The assay can be described thus: HEK assay (GLP HEK / Migalastat Amenability Assay): α-Gal A activity in lysates of transiently transfected HEK-293 cells incubated with or without 10 μM migalastat. The class given is cell-based, human. The note with it: for Absolute increase (% WT) / Relative increase: 10 μM migalastat versus baseline; for Baseline α-Gal A activity (% WT): absence of migalastat; for Baseline α-Gal A activity (% WT) / 10 μM migalastat α-Gal A activity (% WT): percentage of baseline wild-type α-Gal A activity; for Baseline α-Gal A activity (% WT) / Baseline α-Gal A activity / 10 μM migalastat α-Gal A activity / 10 μM migalastat α-Gal A activity (% WT): mean ± SEM; for Baseline α-Gal A activity / 10 μM migalastat α-Gal A activity: lysates of HEK-293 cells transiently transfected with the mutant form; for Baseline α-Gal A activity: incubated 5 days in absence of migalastat; for 10 μM migalastat α-Gal A activity: incubated 5 days with 10 μM migalastat; for 10 μM migalastat α-Gal A activity (% WT): with 10 μM migalastat, 5 days. An outline of the steps: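 Activity reported as 4-MU released (nmol/mg/hr), mean±SEM, from lysates of transiently transfected HEK-293 cells expressing mutant α-Gal A, cultured with or without 10 μM migalastat.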

Numbering of substitutions follows the chain as printed. Names may count otherwise.

B1: L347I (protein)
chain: MQLRNPELHLGCALALRFLALVSWDIPGARALDNGLARTPTMGWLHWERFMCNLDCQEEPDSCISEKLFMEMAELMVSEGWKDAGYEYLCIDDCWMAPQRDSEGRLQADPQRFPHGIRQLANYVHSKGLKLGIYADVGNKTCAGFPGSFGYYDIDAQTFADWGVDLLKFDGCYCDSLENLADGYKHMSLALNRTGRSIVYSCEWPLYMWPFQKPNYTEIRQYCNHWRNFADIDDSWKSIKSILDWTSFNQERIVDVAGPGGWNDPDMLVIGNFGLSWNQQVTQMALWAIMAAPLFMSNDLRHISPQAKALLQDKDVIAINQDPLGKQGYQLRQGDNFEVWERPLSGIAWAVAMINRQEIGGPRSYTIAVASLGKGVACNPACFITQLLPVKRKLGFYEWTSRLRSHINPTGTVLLQLENTMQMSLKDLL
Take B1: the “Absolute increase (% WT)” value stood at 17.4 % WT, the Relative increase turned out to be 1.3, the “Baseline α-Gal A activity (% WT)” value stood at 65 ± 3.8 % WT and the “Baseline α-Gal A activity” value came to 26815 ± 2533 nmol/mg/h. Besides, the “10 μM migalastat α-Gal A activity” value came out at 33517 ± 2802 nmol/mg/h and the “10 μM migalastat α-Gal A activity (% WT)” value is recorded as 82.4 ± 5 % WT.

B2: M353L (protein)
chain: B1 chain with I347L, M353L
B2: the “Absolute increase (% WT)” value is listed as 14.6 % WT, the Relative increase is on record as 1.2, the “Baseline α-Gal A activity (% WT)” value is 66.6 ± 2.7 % WT and the “Baseline α-Gal A activity” value worked out at 30347 ± 1572 nmol/mg/h. In addition, the “10 μM migalastat α-Gal A activity” value was 36987 ± 1768 nmol/mg/h and the “10 μM migalastat α-Gal A activity (% WT)” value stood at 81.2 ± 2.7 % WT.

B3: A352S (protein)
chain: B1 chain with I347L, A352S
As for B3, the “Absolute increase (% WT)” value was determined as 12.1 % WT, the Relative increase came to 1.2, the “Baseline α-Gal A activity (% WT)” value was 52.8 ± 3.7 % WT and the “Baseline α-Gal A activity” value came out at 23476 ± 1901 nmol/mg/h. Also, the “10 μM migalastat α-Gal A activity” value was 28397 ± 1310 nmol/mg/h and the “10 μM migalastat α-Gal A activity (% WT)” value amounted to 64.9 ± 2.5 % WT.

B4: W349C (protein)
chain: B1 chain with I347L, W349C
On to B4, for which the “Absolute increase (% WT)” value amounted to 12.3 % WT, the Relative increase is listed as 1.3, the “Baseline α-Gal A activity (% WT)” value stood at 41.5 ± 2.6 % WT and the “Baseline α-Gal A activity” value was found to be 17800 ± 1182 nmol/mg/h. Also, the “10 μM migalastat α-Gal A activity” value came out at 23210 ± 1299 nmol/mg/h and the “10 μM migalastat α-Gal A activity (% WT)” value was determined as 53.7 ± 2.5 % WT.

B5: A350S (protein)
chain: B1 chain with I347L, A350S
With B5, the “Absolute increase (% WT)” value was found to be 17.6 % WT, the Relative increase turned out to be 1.3, the “Baseline α-Gal A activity (% WT)” value worked out at 62.9 ± 4.2 % WT and the “Baseline α-Gal A activity” value turned out to be 26493 ± 1291 nmol/mg/h. Further, the “10 μM migalastat α-Gal A activity” value came out at 34474 ± 1484 nmol/mg/h and the “10 μM migalastat α-Gal A activity (% WT)” value worked out at 80.5 ± 3.6 % WT.

B6: V351A (protein)
chain: B1 chain with I347L, V351A
Turning to B6, the “Absolute increase (% WT)” value was 14.2 % WT, the Relative increase worked out at 1.3, the “Baseline α-Gal A activity (% WT)” value is 56.9 ± 4.7 % WT and the “Baseline α-Gal A activity” value amounted to 24009 ± 1662 nmol/mg/h. Besides, the “10 μM migalastat α-Gal A activity” value amounted to 30218 ± 1531 nmol/mg/h and the “10 μM migalastat α-Gal A activity (% WT)” value was 71.1 ± 4.1 % WT.

B7: M353K (protein)
chain: B1 chain with I347L, M353K
In the case of B7, the “Absolute increase (% WT)” value was 13.0 % WT, the Relative increase is 1.4, the “Baseline α-Gal A activity (% WT)” value is 30.3 ± 1.8 % WT and the “Baseline α-Gal A activity” value was determined as 13638 ± 804 nmol/mg/h. For the same molecule, the “10 μM migalastat α-Gal A activity” value worked out at 19335 ± 946 nmol/mg/h and the “10 μM migalastat α-Gal A activity (% WT)” value was determined as 43.4 ± 2.6 % WT.

B8: A350G (protein)
chain: B1 chain with I347L, A350G
In the case of B8, the “Absolute increase (% WT)” value came to 9.5 % WT, the Relative increase is 1.2, the “Baseline α-Gal A activity (% WT)” value is listed as 41 ± 0.9 % WT and the “Baseline α-Gal A activity” value worked out at 21459 ± 695 nmol/mg/h. Moreover, the “10 μM migalastat α-Gal A activity” value was determined as 26360 ± 1002 nmol/mg/h and the “10 μM migalastat α-Gal A activity (% WT)” value was determined as 50.5 ± 1.7 % WT.

B9: A348D (protein)
chain: B1 chain with I347L, A348D
In the case of B9, the “Absolute increase (% WT)” value stood at 8.4 % WT, the Relative increase is 1.2, the “Baseline α-Gal A activity (% WT)” value is on record as 41.6 ± 1.5 % WT and the “Baseline α-Gal A activity” value came to 21682 ± 817 nmol/mg/h. Further, the “10 μM migalastat α-Gal A activity” value worked out at 26025 ± 1129 nmol/mg/h and the “10 μM migalastat α-Gal A activity (% WT)” value came out at 50 ± 2.2 % WT.

B10: N355D (protein)
chain: B1 chain with I347L, N355D
Turning to B10, the “Absolute increase (% WT)” value is listed as 16.7 % WT, the Relative increase is 3.3, the “Baseline α-Gal A activity (% WT)” value stood at 7.3 ± 0.4 % WT and the “Baseline α-Gal A activity” value came out at 3366 ± 241 nmol/mg/h. For the same molecule, the “10 μM migalastat α-Gal A activity” value is 11004 ± 832 nmol/mg/h and the “10 μM migalastat α-Gal A activity (% WT)” value was determined as 24 ± 1.6 % WT.

B11: A352T (protein)
chain: B1 chain with I347L, A352T
Turning to B11, the “Absolute increase (% WT)” value amounted to 31.0 % WT, the Relative increase is recorded as 1.9, the “Baseline α-Gal A activity (% WT)” value is recorded as 37.2 ± 2.1 % WT and the “Baseline α-Gal A activity” value turned out to be 15803 ± 777 nmol/mg/h. Further, the “10 μM migalastat α-Gal A activity” value amounted to 29351 ± 1532 nmol/mg/h and the “10 μM migalastat α-Gal A activity (% WT)” value amounted to 68.2 ± 3.2 % WT.

B12: I354R (protein)
chain: B1 chain with I347L, I354R
For B12, the “Absolute increase (% WT)” value was 27.8 % WT, the Relative increase was determined as 2.4, the “Baseline α-Gal A activity (% WT)” value amounted to 20.1 ± 1.2 % WT and the “Baseline α-Gal A activity” value was 9157 ± 633 nmol/mg/h. For the same molecule, the “10 μM migalastat α-Gal A activity” value is 21854 ± 1398 nmol/mg/h and the “10 μM migalastat α-Gal A activity (% WT)” value was found to be 47.9 ± 2.6 % WT.

B13: A350V (protein)
chain: B1 chain with I347L, A350V
On to B13, for which the “Absolute increase (% WT)” value is 22.3 % WT, the Relative increase came out at 1.8, the “Baseline α-Gal A activity (% WT)” value was determined as 27.9 ± 0.9 % WT and the “Baseline α-Gal A activity” value was 12786 ± 654 nmol/mg/h. The “10 μM migalastat α-Gal A activity” value amounted to 22855 ± 1012 nmol/mg/h and the “10 μM migalastat α-Gal A activity (% WT)” value is 50.2 ± 1.6 % WT.

B14: V351E (protein)
chain: B1 chain with I347L, V351E
B14: the “Absolute increase (% WT)” value was determined as 7.2 % WT, the Relative increase worked out at 1.7, the “Baseline α-Gal A activity (% WT)” value was 10.5 ± 0.5 % WT and the “Baseline α-Gal A activity” value came out at 4760 ± 281 nmol/mg/h. Moreover, the “10 μM migalastat α-Gal A activity” value was 7910 ± 348 nmol/mg/h and the “10 μM migalastat α-Gal A activity (% WT)” value is 17.7 ± 1 % WT.

B15: A350T (protein)
chain: B1 chain with I347L, A350T
As to B15, the “Absolute increase (% WT)” value was 14.4 % WT, the Relative increase is 1.3, the “Baseline α-Gal A activity (% WT)” value stood at 47.4 ± 3.7 % WT and the “Baseline α-Gal A activity” value was found to be 20227 ± 1499 nmol/mg/h. Moreover, the “10 μM migalastat α-Gal A activity” value was 26484 ± 1189 nmol/mg/h and the “10 μM migalastat α-Gal A activity (% WT)” value was determined as 61.7 ± 2.7 % WT.

B16: N355H (protein)
chain: B1 chain with I347L, N355H
For the molecule B16, the “Absolute increase (% WT)” value was found to be 9.9 % WT, the Relative increase amounted to 3.5, the “Baseline α-Gal A activity (% WT)” value stood at 4 ± 0.2 % WT and the “Baseline α-Gal A activity” value came to 1822 ± 81 nmol/mg/h. The “10 μM migalastat α-Gal A activity” value worked out at 6399 ± 338 nmol/mg/h and the “10 μM migalastat α-Gal A activity (% WT)” value was 13.9 ± 0.6 % WT.

B17: W349L (protein)
chain: B1 chain with I347L, W349L
B17: the “Absolute increase (% WT)” value is listed as 11.8 % WT, the Relative increase was found to be 1.3, the “Baseline α-Gal A activity (% WT)” value is recorded as 35 ± 1.6 % WT and the “Baseline α-Gal A activity” value is 18128 ± 742 nmol/mg/h. Besides, the “10 μM migalastat α-Gal A activity” value stood at 24184 ± 1517 nmol/mg/h and the “10 μM migalastat α-Gal A activity (% WT)” value is 46.8 ± 3.2 % WT.

B18: M353T (protein)
chain: B1 chain with I347L, M353T
With B18, the “Absolute increase (% WT)” value is recorded as 19.2 % WT, the Relative increase stood at 1.4, the “Baseline α-Gal A activity (% WT)” value is given as 46.4 ± 2.8 % WT and the “Baseline α-Gal A activity” value was found to be 15631 ± 1026 nmol/mg/h. For the same molecule, the “10 μM migalastat α-Gal A activity” value stood at 21953 ± 937 nmol/mg/h and the “10 μM migalastat α-Gal A activity (% WT)” value is 65.6 ± 3 % WT.
